Assay results taken from doi:10.1101/718072.
Where two headings read alike, the source gives them in different places.

Tests used:
[1] = biological target: FliF (flagellar MS-ring protein) from Salmonella enterica serovar Typhimurium (Salmonella enterica serovar Typhimurium) (UniProt P15928); test: cryo-EM structure
[2] = biological target: FliF (flagellar MS-ring protein) from Salmonella enterica serovar Typhimurium (Salmonella enterica serovar Typhimurium) (UniProt P15928); test: cryo-EM structure; remark: listed apart in the source

## FliF (flagellar MS-ring protein) from Salmonella enterica serovar Typhimurium (from UniProt P15928 1-560) (natural protein)
[1]
  stoichiometry N: 33
[2]
  stoichiometry N: 34
